The values below come from article PMC7683268.

The target of the assay is N-terminally MBP-fused and C-terminally mCherry-fused C-terminal intracellular region of Lrp5 (zebrafish). The assay is described as follows: bead binding assay read by EGFP fluorescence microscopy.

“N-terminally GST-fused and C-terminally EGFP-fused RBP1a (natural protein)”: the EGFP signal on beads is 5.3.
